Here are results for eight molecules from patent publication US20040219615A1 (YEDA RESEARCH AND DEVELOPMENT, published 2004).

The chains are these.
B1: MORT-1 (other, UniProt Q13158 1-208, looked up)
chain: MDPFLVLLHSVSSSLSSSELTELKFLCLGRVGKRKLERVQSGLDLFSMLLEQNDLEPGHTELLRELLASLRRHDLLRRVDDFEAGAAAGAAPGEEDLCAAFNVICDNVGKDWRRLARQLKVSDTKIDSIEDRYPRNLTERVRESLRIWKNTEKENATVAHLVGALRSCQMNLVADLVQEVQQARDLQNRSGAMSPMSWNSDASTSEAS
notes: also called FADD
B2: TRADD (other, UniProt Q15628 1-312, looked up)
chain: MAAGQNGHEEWVGSAYLFVESSLDKVVLSDAYAHPQQKVAVYRALQAALAESGGSPDVLQMLKIHRSDPQLIVQLRFCGRQPCGRFLRAYREGALRAALQRSLAAALAQHSVPLQLELRAGAERLDALLADEERCLSCILAQQPDRLRDEELAELEDALRNLKCGSGARGGDGEVASAPLQPPVPSLSEVKPPPPPPPAQTFLFQGQPVVNRPLSLKDQQTFARSVGLKWRKVGRSLQRGCRALRDPALDSLAYEYEREGLYEQAFQLLRRFVQAEGRRATLQRLVEALEENELTSLAEDLLGLTDPNGGLA
B3: RAP-2 deletion fragment containing amino acids 218-416 (other)
chain: QAASEEKRKLAQLQVAYHQLFQEYDNHIKSSVVGSERKRGMQLEDLKQQLQQAEEALVAKQEVIDKLKEEAEQHKIVMETVPVLKAQADIYKADFQAERQAREKLAEKKELLQEQLEQLQREYSKLKASCQESARIEDMRKRHVEVSQAPLPPAPAYLSSPLALPSQRRSPPEEPPDFCCPKCQYQAPDMDTLQIHVME
B4: RAP-2 deletion fragment spanning amino acids 95-309 (other)
chain: CKFQEARKLVERLGLEKLDLKRQKEQALREVEHLKRCQQQMAEDKASVKAQVTSLLGELQESQSRLEAATKECQALEGRARAASEQARQLESEREALQQQHSVQVDQLRMQGQSVEAALRMERQAASEEKRKLAQLQVAYHQLFQEYDNHIKSSVVGSERKRGMQLEDLKQQLQQAEEALVAKQEVIDKLKEEAEQHKIVMETVPVLKAQADIYK
B5: p75-R (p75 TNF receptor) (receptor, UniProt P20333 287-461, looked up)
chain: VKKKPLCLQREAKVPHLPADKARGTQGPEQQHLLITAPSSSSSSLESSASALDRRAPTRNQPQAPGVEASGAGEARASTGSSDSSPGGHGTQVNVTCIVNVCSSSDHSSQCSSQASSTMGDTDSSPSESPKDEQVPFSKEECAFRSQLETPETLLGSTEEKPLPLGVPDAGMKPS
B6: RAP-2 deletion fragment containing amino acids 1-264 (other)
chain: MNRHLWKSQLCEMVQPSGGPAADQDVLGEESPLGKPAMLHLPSEQGAPETLQRCLEENQELRDAIRQSNQILRERCEELLHFQASQREEKEFLMCKFQEARKLVERLGLEKLDLKRQKEQALREVEHLKRCQQQMAEDKASVKAQVTSLLGELQESQSRLEAATKECQALEGRARAASEQARQLESEREALQQQHSVQVDQLRMQGQSVEAALRMERQAASEEKRKLAQLQVAYHQLFQEYDNHIKSSVVGSERKRGMQLEDLK
B7: p55-R (p55 TNF receptor) (receptor, UniProt P19438 235-455, looked up)
chain: RYQRWKSKLYSIVCGKSTPEKEGELEGTTTKPLAPNPSFSPTPGFTPTLGFSPVPSSTFTSSSTYTPGDCPNFAAPRREVAPPYQGADPILATALASDPIPNPLQKWEDSAHKPQSLDTDDPATLYAVVENVPPLRWKEFVRRLGLSDHEIDRLELQNGRCLREAQYSMLATWRRRTPRREATLELLGRVLRDMDLLGCLEDIEEALCGPAALPPAPSLLR
notes: also called TNFR-I
B8: clone #84 (other, UniProt Q99675 1-332, looked up)
chain: MAAVFLVTLYEYSPLFYIAVVFTCFIVTTGLVLGWFGWDVPVILRNSEETQFSTRVFKKQMRQVKNPFGLEITNPSSASITTGITLTTDCLEDSLLTCYWGCSVQKLYEALQKHVYCFRISTPQALEDALYSEYLYQEQYFIKKDSKEEIYCQLPRDTKIEDFGTVPRSRYPLVALLTLADEDDREIYDIISMVSVIHIPDRTYKLSCRILYQYLLLAQGQFHDLKQLFMSANNNFTPSNNSSSEEKNTDRSLLEKVGLSESEVEPSEENSKDCVVCQNGTVNWVLLPCRHTCLCDGCVKYFQQCPMCRQFVQESFALCSQKEQDKDKPKTL
notes: Isolated from the B-cell cDNA library with full-length RAP-2 as bait; The whole CGR19 entry is named; also called CGR19; Cell Growth Regulatory protein CGR19

The target of assay [1] is B8. The assay can be described thus: yeast two-hybrid test.
Assay [2] deals with T1, RAP-2 (RIP-associated protein-2), full-length (human, UniProt Q9Y6K9 1-419).
T1 construct: Full-length RAP-2; The RIP screen first yielded a partial clone of about 1.5 Kb; also called 303; RAP-303
The assay can be described thus: binding assay tests (two-hybrid).

Assay [3] addresses T1, RAP-2 (RIP-associated protein-2), …. Kind of assay: deletion analysis, self-association of RAP-2.
Assay [4] has as its target T2, TIP60 (histone acetyltransferase) (UniProt Q92993 1-513, limits assumed). The assay can be described thus: deletion analysis of RAP-2.
In assay [5] the target is T2, TIP60 (histone acetyltransferase). Kind of assay: yeast two-hybrid test.
Assay [6] concerns the target T3, RIP (receptor interacting protein) (human, UniProt Q13546 1-671).
T3 construct: mature; Full-length RIP was the two-hybrid bait; In co-immunoprecipitation it was pulled down with anti-FLAG mAbs (FLAG tag implied); also called RIP protein
T3 sequence (looked up): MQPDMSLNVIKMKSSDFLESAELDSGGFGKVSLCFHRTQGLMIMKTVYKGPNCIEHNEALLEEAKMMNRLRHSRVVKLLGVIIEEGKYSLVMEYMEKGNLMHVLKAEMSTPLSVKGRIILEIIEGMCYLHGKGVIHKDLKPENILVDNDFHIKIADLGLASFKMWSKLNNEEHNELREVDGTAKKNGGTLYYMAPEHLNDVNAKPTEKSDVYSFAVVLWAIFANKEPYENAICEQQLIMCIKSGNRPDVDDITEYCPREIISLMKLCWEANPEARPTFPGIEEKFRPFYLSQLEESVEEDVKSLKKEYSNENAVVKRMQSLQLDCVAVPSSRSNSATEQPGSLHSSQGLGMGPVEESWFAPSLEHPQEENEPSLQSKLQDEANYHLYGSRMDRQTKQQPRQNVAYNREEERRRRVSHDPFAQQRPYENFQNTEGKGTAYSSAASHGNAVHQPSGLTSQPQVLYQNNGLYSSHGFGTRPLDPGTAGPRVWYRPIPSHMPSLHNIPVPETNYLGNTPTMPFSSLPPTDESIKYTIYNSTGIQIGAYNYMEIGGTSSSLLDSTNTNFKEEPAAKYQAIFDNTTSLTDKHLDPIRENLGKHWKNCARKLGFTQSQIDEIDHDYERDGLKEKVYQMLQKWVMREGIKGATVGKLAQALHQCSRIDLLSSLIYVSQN
Kind of assay: yeast two-hybrid test.

Assay [7] has as its target NIK (UniProt Q99558 1-947). The assay can be described thus: yeast two-hybrid test.
In assay [8] the target is T4, TRAF2 (UniProt Q12933 1-501, limits assumed).
T4 sequence (looked up): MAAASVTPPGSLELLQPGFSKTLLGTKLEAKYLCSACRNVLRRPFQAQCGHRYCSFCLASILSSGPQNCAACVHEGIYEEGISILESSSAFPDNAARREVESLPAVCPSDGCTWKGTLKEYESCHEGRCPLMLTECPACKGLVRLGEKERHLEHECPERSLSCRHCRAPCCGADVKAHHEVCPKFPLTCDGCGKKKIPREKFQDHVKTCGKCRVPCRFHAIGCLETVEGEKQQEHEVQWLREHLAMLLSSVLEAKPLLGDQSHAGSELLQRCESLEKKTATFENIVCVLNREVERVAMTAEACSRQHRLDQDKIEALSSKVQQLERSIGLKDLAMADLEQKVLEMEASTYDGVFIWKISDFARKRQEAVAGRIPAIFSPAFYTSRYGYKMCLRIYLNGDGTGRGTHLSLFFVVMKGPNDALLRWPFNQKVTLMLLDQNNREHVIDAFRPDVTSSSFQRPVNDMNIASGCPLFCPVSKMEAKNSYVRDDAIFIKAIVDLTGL
Kind of assay: yeast two-hybrid test.

T2 sequence (Q92993 whole entry): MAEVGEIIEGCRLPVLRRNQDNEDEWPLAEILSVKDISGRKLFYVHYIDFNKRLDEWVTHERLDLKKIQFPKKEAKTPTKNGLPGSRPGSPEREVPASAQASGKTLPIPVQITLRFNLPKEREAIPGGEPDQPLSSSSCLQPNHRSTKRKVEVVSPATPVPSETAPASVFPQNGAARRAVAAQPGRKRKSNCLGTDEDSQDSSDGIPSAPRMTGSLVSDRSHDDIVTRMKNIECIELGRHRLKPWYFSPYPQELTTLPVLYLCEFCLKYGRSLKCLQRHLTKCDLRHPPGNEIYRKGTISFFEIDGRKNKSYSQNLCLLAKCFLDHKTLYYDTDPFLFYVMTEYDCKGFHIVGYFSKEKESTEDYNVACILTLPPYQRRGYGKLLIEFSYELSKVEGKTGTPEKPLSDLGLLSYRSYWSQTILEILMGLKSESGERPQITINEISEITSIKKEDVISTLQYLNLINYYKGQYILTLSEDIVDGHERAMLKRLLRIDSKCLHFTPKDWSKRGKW
NIK, sequence (Q99558 whole entry): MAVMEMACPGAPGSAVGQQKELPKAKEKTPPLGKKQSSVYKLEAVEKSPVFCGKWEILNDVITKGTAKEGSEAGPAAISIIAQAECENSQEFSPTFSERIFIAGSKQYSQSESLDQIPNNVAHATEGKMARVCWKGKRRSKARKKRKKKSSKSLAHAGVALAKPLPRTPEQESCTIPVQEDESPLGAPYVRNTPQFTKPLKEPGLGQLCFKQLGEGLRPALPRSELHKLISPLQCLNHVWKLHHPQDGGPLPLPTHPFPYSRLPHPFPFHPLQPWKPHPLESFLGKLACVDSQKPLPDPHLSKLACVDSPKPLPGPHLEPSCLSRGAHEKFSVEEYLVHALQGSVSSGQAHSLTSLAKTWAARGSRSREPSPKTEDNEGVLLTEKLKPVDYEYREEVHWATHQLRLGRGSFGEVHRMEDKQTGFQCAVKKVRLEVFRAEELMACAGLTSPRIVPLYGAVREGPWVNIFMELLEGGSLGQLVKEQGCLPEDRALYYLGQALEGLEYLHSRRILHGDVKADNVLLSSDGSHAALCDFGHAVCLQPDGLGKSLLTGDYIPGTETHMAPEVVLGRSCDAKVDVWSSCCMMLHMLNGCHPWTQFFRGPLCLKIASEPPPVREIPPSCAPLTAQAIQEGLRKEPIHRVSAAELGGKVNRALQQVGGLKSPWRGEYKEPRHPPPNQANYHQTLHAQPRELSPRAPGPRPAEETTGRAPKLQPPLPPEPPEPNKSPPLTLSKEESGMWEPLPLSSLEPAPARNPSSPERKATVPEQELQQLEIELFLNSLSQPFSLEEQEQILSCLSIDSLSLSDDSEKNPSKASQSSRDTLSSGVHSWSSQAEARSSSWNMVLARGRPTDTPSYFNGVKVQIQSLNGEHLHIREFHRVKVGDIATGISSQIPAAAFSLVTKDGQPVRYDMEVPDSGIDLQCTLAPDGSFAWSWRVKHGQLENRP

Consider B1, for which the binding result in assay [1] and in assay [2] was “no binding” each time.

Regarding B2, the binding result in assay [1] and in assay [2] was “no binding” in each case.

Consider B3, for which the binding result in assay [3] is recorded as “binds”.

With B4, in assay [4], the binding result is given as “no binding”.

For B5, the binding result in assay [2] is listed as “no binding”.

For the molecule B6, the binding result in assay [3] is “binds”.

Consider B7, for which the binding result in assay [2] was “no binding”.

Turning to B8, the binding result in assay [5], in assay [6], in assay [7] and in assay [8] was “no binding” each time.
